Test results as given in patent US20240174992A1, “SPLIT MODIFIED DEHALOGENASE VARIANTS” (Promega Corporation, priority 2022, published 2024).
Substitutions are numbered along the chain they refer to. Names may count otherwise.

B1: HaloTag[22-297](M2F): large HaloTag fragment, positions 22-297 with M to F substitution at second position (protein)
chain: MFHYVDVGPRDGTPVLFLHGNPTSSYVWRNIIPHVAPTHRCIAPDLIGMGKSDKPDLGYFFDDHVRFMDAFIEALGLEEVVLVIHDWGSALGFHWAKRNPERVKGIAFMEFIRPIPTWDEWPEFARETFQAFRTTDVGRKLIIDQNVFIEGTLPMGVVRPLTEVEMDHYREPFLNPVDREPLWRFPNELPIAGEPANIVALVEEYMDWLHQSPVPKLLFWGTPGVLIPPAEAARLAKSLPNCKAVDIGPGLNLLQEDNPDLIGSEIARWLSTLEISG
B2: HaloTag[22-297](Q145H+P154R): variant of the LgHT, positions 22-297 with HaloTag9 mutations (protein)
chain: B1 chain with F2M, Q145H, P154R

Experiments:
[1] = Complementation of N-terminal split HaloTag constructs in E. coli lysates, Janelia Fluor ligand fluorescence; assay type: biochemical; conditions: 500 nM Rapamycin, 50 nM JF646
Protocol: FIG. 21A-B. Comparison of complementation activity of N-terminal split HaloTag constructs. Each HaloTag fragment was expressed separately in E. coli and then combined after lysis. The smaller N-terminal HaloTag fragments as FKBP fusions were tested against the larger fragments of FIG. 21A HT(23-297)-FRB or FIG. 21B HT(22-297)-FRB. To each reaction, 500 nM Rapamycin was added and incubated at room temperature for 2.5 hours prior to addition of 50 nM JF646 ligand and measurement of fluorescence at the indicated timepoint.
FIG. 22. Comparison of truncations of N-terminal split HaloTag constructs. Each HaloTag fragment was expressed separately in E. coli and then combined after lysis. […] To each reaction, 500 nM Rapamycin was added and incubated at room temperature for 2 hours prior to addition of 50 nM JF646 ligand and measurement of fluorescence at the indicated timepoint.
FIG. 25A-B. Mutations in N-terminal split HaloTag fragments improve fluorescence intensity and fold response. […] To each reaction, 500 nM Rapamycin was added and incubated at room temperature for 2 hours prior to addition of 50 nM JF646 ligand and measurement of fluorescence at the indicated timepoint. FIG. 25A Fluorescence intensity is shown for +Rapamycin condition to show the overall system brightness relative to FIG. 25B Fold response following Rapamycin addition. […]

[2] = tested on: synthetic HaloTag[3-19] peptide; assay: Complementation of large HaloTag fragment in E. coli lysates with synthetic HaloTag[3-19] peptide, JF646; assay type: binding; conditions: for Kd: synthetic HaloTag[3-19] peptide titration up to 1 mM, estimated from saturation of fluorescence signal, read-out: affinity between the split HaloTag fragments
Protocol: FIG. 30. Complementation of HaloTag[22-297](M2F) fragment in E. coli lysates using a synthetic HaloTag[3-19] peptide. […] Reactions were incubated for 2 hours at room temperature and then labeled with 50 nM JF646 HaloTag ligand prior to fluorescence detection.
FIG. 31. Complementation of HaloTag[22-297](Q145H+P154R) fragment in E. coli lysates using a synthetic HaloTag[3-19] peptide. […] Reactions were incubated for 2 hours at room temperature and then labeled with 50 nM JF646 HaloTag ligand prior to fluorescence detection.

[3] = target: T1, BRD4:Histone H3 interaction (Homo sapiens, UniProt O60885); assay: Single live cell time-lapse imaging after JQ1 addition (SmHaloTag dissociation); assay type: cell-based; conditions: 20 micromolar JQ1, up to about 5 hours, ligand-bound
T1 construct: HaloTag[3-19]; expressed in transfected cells; host or cells: HeLa cells
Protocol: FIG. 139. Quantitation of single live cell time-lapse imaging of inhibition of the BRD4:Histone H3 interaction using split HaloTag fluorescence. […] The intensity of a single cell in both the green and the far-red channel plus its occupied area was tracked over this period.
Measurement of the fluorescence intensity of Split HaloTag after the dissociation of the Small HaloTag peptide, HaloTag[3-19], was tested. After the separation of the SmHaloTag, the Large HaloTag, HaloTag[22-297](M2F), is still covalently bound to the ligand but does the Small HaloTag dissociation affect the ligand fluorogenicity/activity? Time-lapse live cell imaging was performed to address this question. To ensure the tracked cell was viable during the experiment, the area occupied by that specific cell was measured at all time points.

[4] = tested on: HeLa cells; assay: Lytic TMR assay of large HaloTag fragment expression in HeLa cells; assay type: cell-based; conditions: complemented and non-complemented forms
Protocol: FIG. 124. Comparing the expression of HaloTag[22-297](Q145H+P154R) and HaloTag[22-297](M2F) when complemented with the small HaloTag fragment in mammalian cells. 50 ul of HeLa cells lysate that was transiently transfected with plasmids expressing EGFP-FKBP-HaloTag[3-19], HaloTag[22-297](Q145H+P154R)-FRB or HaloTag[22-297](M2F)-FRB plasmids and were incubated with 500 nM Rapamycin at room temperature for 2 hours to induce HaloTag fragments complementation. TMR HaloTag ligand at 2 micromolar was added to all wells and incubated at room temperature in the dark overnight prior to resolution by SDS-PAGE and fluorescence detection.
Experiments were conducted during development of embodiments herein to compare the expression of HaloTag[22-297](Q145H+P154R) vs. HaloTag[22-297](M2F) as complemented with the small HaloTag fragment HaloTag[3-19] and non-complemented form in mammalian cells (FIG. 124).

[5] = compared with HaloTag[22-297](M2F)

Molecule | effect of mutation in the HT(22-297) large fragment on system performance [1] | Kd [2] [nM] | change in cell intensity upon SmHaloTag dissociation [3] | expression in mammalian cells [4] | complemented signal [2, 5] | fold response [2, 5] | apparent affinity for the peptide (saturates fluorescence intensity at higher peptide concentrations) | lowest peptide concentration with measurable fold response (synthetic HaloTag[3-19] peptide)
B1 | improve the fold response | > 100000 | reduces almost by half | – | – | – | – | –
B2 | significantly enhanced the labeling speed | ~1000 | – | expressed better than HaloTag[22-297](M2F) | higher complemented signal | lower fold response | higher apparent affinity for the peptide | mid-nanomolar range
